These results are taken from paper PMC4111287.

The target in this assay is soluble human PEX3 (reading frame from G25, C235S) (human) (UniProt P56589). Description: native MS; PEX3 and PEX19 mixed in equimolar concentrations (5-10 µM), overnight at 4°C in 20 mM sodium phosphate, 300 mM NaCl, 1 mM DTT, pH 8.0; nano-electrospray on a QToF I under conditions that preserve non-covalent interactions; complex analysed at 10 µM.
Sequence of UniProt P56589 (P56589 25-373 C235S): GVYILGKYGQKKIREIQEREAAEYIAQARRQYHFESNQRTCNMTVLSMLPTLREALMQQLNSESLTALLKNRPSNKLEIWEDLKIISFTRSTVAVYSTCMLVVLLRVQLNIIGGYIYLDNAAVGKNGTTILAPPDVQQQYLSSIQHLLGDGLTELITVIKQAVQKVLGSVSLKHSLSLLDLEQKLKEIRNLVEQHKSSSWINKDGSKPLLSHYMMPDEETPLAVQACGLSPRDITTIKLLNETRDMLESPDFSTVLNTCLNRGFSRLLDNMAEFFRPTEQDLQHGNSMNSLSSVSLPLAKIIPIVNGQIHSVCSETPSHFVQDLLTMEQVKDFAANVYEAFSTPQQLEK

For orientation: stoichiometry N means a count of units in the complex or per binding partner. “full length human PEX19 with an N-terminal His-tag (from UniProt P56589 1-373) (natural protein)” came in with a stoichiometry N of 1.
